The values below come from patent publication US20260209285A1, “SWEET-TASTING PROTEIN BRAZZEIN MUTANT HAVING HIGH SWEETNESS AND PREPARATION METHOD THEREFOR” (NANJING BESTZYME BIO-ENGINEERING CO., LTD., priority 2022, published 2026).

Read-outs that look alike come from different tables or passages of the source.

The conditions of data set [1]: aqueous solution, 80° C. for 4 hours; cited from earlier work.
Data set [2] concerns healthy evaluators. The data set can be described thus: Determination of sweetness threshold by human sensory evaluation. It counts as in vivo. As to conditions: for Sweetness fold relative to 1% sucrose: =10000/(sample sweetness threshold); for Concentration (μg/mL) corresponding to threshold: sweetness threshold, protein diluted with mineral water (pH 6.9), averaged for 10 individuals. As for the experimental part:
Since the recombinant Brazzein of the present disclosure is not a sugar-based compound, it is impossible to measure the sweetness by using a saccharometer. Therefore, the sweetness threshold is measured using human sensory evaluation. For most people, the sweetness threshold for sugar in soft drinks is 0.32%-1.0%. To assess the sweetness threshold for each solution, an 1% sucrose solution is used as the solution with minimum concentration at which sweetness is felt, i.e., the sweetness threshold is 10000 μg/mL The sweetness potency of the Brazzein described herein relative to sucrose is generally in a range of 1:500 to 1:16,000. The samples tested included naturally extracted Brazzein (homemade, about 95% pure), recombinant Brazzein and mutants thereof, sucrose and mineral water. The protein was diluted in a gradient from 0.5 to 20 μg/ml by diluting the dry protein powder with mineral water (pH 6.9). Ten healthy evaluators (five males and five females) aged between 30 and 50 participated in the assessment, five of whom were trained wine tasters. Tasting started at the lowest concentration, with concentration increased by 1 μg/ml each time until sweetness was felt; then based on this concentration, the concentration was reduced by 0.1 μg/ml at a time until sweetness was not felt; and the sweetness threshold of the sample was determined by gradually decreasing the concentration gradient in such a way. 20 ml of samples were tested randomly compared to sugar solutions. Before each analysis, the evaluator was asked to rinse his/her mouth with water and eat the neutral crackers until there was no residual taste. The test solution was held in oral cavity for at least 10 seconds. Thereafter, evaluators provided scores against samples on the basis of their responses between 0 and 10; 0—no sweet feeling, 10—highly sweet. The final results for each protein were averaged for 10 individuals. The sweetness factor of Brazzein and mutants thereof relative to 1% sucrose=10000/(sample sweetness threshold).

The subject of data set [3] is healthy evaluators. As to conditions: 1% sucrose solution used as minimum concentration at which sweetness is felt; cited from earlier work.
The conditions of data set [4]: cited from earlier work; for sweetness relative to sucrose of the same weight: calculated by weight, prior art; for sweetness delay: prior art CN 102498126 A.

Turning to “Brazzein [Brazzein] (DKCKKVYENYPVSKCQLANQCNYDCKLDKHARSGECFYDEKRNLQCICDYCEY; listed as Pentadiplandra brazzeana) [sweet protein extracted from fruits of Pentadiplandra brazzeana (Baillon), 54 amino acids, 6.5 kDa]”, the “sweetness after heat treatment” value in data set [1] is given as “remains sweet”.

Turning to “Brazzein (QDKCKKVYENYPVSKCQLANQCNYDCKLDKHARSGECFYDEKRNLQCICDYCEY; UniProt P56552 1-54, looked up) [Naturally extracted Brazzein, naturally extracted Brazzein (homemade, about 95% pure), reference compound]”, in the data set with healthy evaluators [2], the “Sweetness fold relative to 1% sucrose” value is reported as 501 fold and the “Concentration (μg/mL) corresponding to threshold” value (shortened to “Concentration”) worked out at 20 ± 3.9 µg/mL.

`OC[C@H]1O[C@@](CO)(O[C@H]2O[C@H](CO)[C@@H](O)[C@H](O)[C@H]2O)[C@@H](O)[C@@H]1O` [sucrose]: the “sweetness threshold of sucrose (reference)” value in the data set with healthy evaluators [3] was 10000 µg/mL.

Regarding “Brazzein [Brazzein expressed by Pichia pastoris]”, the “sweetness relative to sucrose of the same weight” value in data set [4] is given as 40 times.

Turning to Brazzein, the “sweetness relative to sucrose of the same weight” value in data set [4] (listed as Brazzein expressed in an Aspergillus oryzae host in patent CN102498126A) is given as 510 times; in data set [4] (listed as expressed Brazzein), “about 510 times”. The sweetness delay result in data set [4] is “about 1.5 seconds”; in data set [4] (listed as expressed Brazzein), “obvious sweetness delay”.

B1: ROLpro-BXT-D1: BXT-D1 expressed fused to leader peptide ROLpro, SEQ ID NO: 21; leader removed by cleavage (protein)
chain: DDNLVGGMTLDLPSDAPPISLSSSTNSAVALEKRDKCKKVYENYPVSKCQLANQCNYDCKLDKHARSGDCFYDAKRNLQCICDYCEY
modifications: ROLpro leader removed by cleavage
B1: in the data set with healthy evaluators [2], the “Sweetness fold relative to 1% sucrose” value was found to be 6666.7 fold and the “Concentration” value turned out to be 1.5 ± 0.3 µg/mL.

B2: ROLpro-BXT-D2: BXT-D2 expressed fused to leader peptide ROLpro, SEQ ID NO: 23; leader removed by cleavage (protein)
chain: DDNLVGGMTLDLPSDAPPISLSSSTNSAVALEKRDKCKKVYENYPVSKCQLANQCNYDCKLDKHARSGDCFYDDKRNLQCICDYCEY
modifications: ROLpro leader removed by cleavage
Turning to B2, in the data set with healthy evaluators [2], the “Sweetness fold relative to 1% sucrose” value stood at 3703.7 fold and the “Concentration” value worked out at 2.7 ± 0.5 µg/mL.

B3: ROLpro-BXT: Brazzein BXT expressed fused to Rhizopus oryzae lipase leader peptide ROLpro with kex2 site, SEQ ID NO: 19; leader removed by cleavage (protein)
chain: DDNLVGGMTLDLPSDAPPISLSSSTNSAVALEKRDKCKKVYENYPVSKCQLANQCNYDCKLDKHARSGECFYDEKRNLQCICDYCEY
modifications: ROLpro leader removed by kex2 cleavage
On to B3, for which, in the data set with healthy evaluators [2], the “Sweetness fold relative to 1% sucrose” value came out at 613.5 fold and the “Concentration” value was determined as 16.3 ± 2.9 µg/mL.

B4: ROLpro-BXT-D7: BXT-D7 expressed fused to leader peptide ROLpro, SEQ ID NO: 33; leader removed by cleavage (protein)
chain: DDNLVGGMTLDLPSDAPPISLSSSTNSAVALEKRDKCKKVYENYPVSKCQLANQCNYDCKLDKRARSGDCFYDRKRNLQCICDYCEY
modifications: ROLpro leader removed by cleavage
For the molecule B4, in the data set on healthy evaluators [2], the “Sweetness fold relative to 1% sucrose” value is reported as 16666.7 fold and the “Concentration” value was determined as 0.6 ± 0.1 µg/mL.

B5: ROLpro-BXT-D6: BXT-D6 expressed fused to leader peptide ROLpro, SEQ ID NO: 31; leader removed by cleavage (protein)
chain: DDNLVGGMTLDLPSDAPPISLSSSTNSAVALEKRDKCKKVYENYPVSKCQLANQCNYDCKLDKRARSGDCFYDKKRNLQCICDYCEY
modifications: ROLpro leader removed by cleavage
As for B5, in the data set with healthy evaluators [2], the “Sweetness fold relative to 1% sucrose” value is given as 16666.7 fold and the “Concentration” value came to 0.6 ± 0.1 µg/mL.

B6: ROLpro-BXT-D5: BXT-D5 expressed fused to leader peptide ROLpro, SEQ ID NO: 29; leader removed by cleavage (protein)
chain: DDNLVGGMTLDLPSDAPPISLSSSTNSAVALEKRDKCKKVYENYPVSKCQLANQCNYDCKLDKRARSGDCFYDAKRNLQCICDYCEY
modifications: ROLpro leader removed by cleavage
B6: in the data set on healthy evaluators [2], the “Sweetness fold relative to 1% sucrose” value is 8333.3 fold and the “Concentration” value came to 1.2 ± 0.2 µg/mL.

B7: ROLpro-BXT-D4: BXT-D4 expressed fused to leader peptide ROLpro, SEQ ID NO: 27; leader removed by cleavage (protein)
chain: DDNLVGGMTLDLPSDAPPISLSSSTNSAVALEKRDKCKKVYENYPVSKCQLANQCNYDCKLDKHARSGDCFYDRKRNLQCICDYCEY
modifications: ROLpro leader removed by cleavage
With B7, in the data set on healthy evaluators [2], the “Sweetness fold relative to 1% sucrose” value is 8333.3 fold and the “Concentration” value was found to be 1.2 ± 0.2 µg/mL.

B8: ROLpro-BXT-D3: BXT-D3 expressed fused to leader peptide ROLpro, SEQ ID NO: 25; leader removed by cleavage (protein)
chain: DDNLVGGMTLDLPSDAPPISLSSSTNSAVALEKRDKCKKVYENYPVSKCQLANQCNYDCKLDKHARSGDCFYDKKRNLQCICDYCEY
modifications: ROLpro leader removed by cleavage
As for B8, in the data set with healthy evaluators [2], the “Sweetness fold relative to 1% sucrose” value was found to be 6250 fold and the “Concentration” value came out at 1.6 ± 0.3 µg/mL.
